Experimental data as given in the supplement of paper PMC9233669.
Fewer inactive variants are shown than the library holds.

Columns and labels:
biotinyl-Phe-oxazolone = experiment: self-aminoacylation, catalytic enhancement (BFO) (fold over background); higher = more active; k-Seq, kA / k0A0; sequences stand for … in GGGAAUGGAUCCACAUCUACGAAUUC…UUCACUGCAGACUUGACGAAGCUG
Summary of the method: (§1)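 Catalytic enhancement equals the median kA over the uncatalyzed rate, the latter read from the low-activity peak of a bimodal Gaussian fit. Values of kA came from fitting each sequence's fraction reacted to a pseudo-first-order model, with 1000 bootstraps. Reacted RNA was captured with streptavidin and quantified by triplicate qPCR and Illumina sequencing after 90 minutes at room temperature with 2–1250 μM biotinyl-aminoacyl-oxazolone and 0.43 μM mutagenized RNA pools bearing a 21-nt variable region.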

biotinyl-Ile-oxazolone = experiment: self-aminoacylation, catalytic enhancement (BIO) (fold over background); higher = more active; k-Seq, kA / k0A0; sequences stand for … in GGGAAUGGAUCCACAUCUACGAAUUC…UUCACUGCAGACUUGACGAAGCUG
Summary of the method: as §1

biotinyl-Met-oxazolone = experiment: self-aminoacylation, catalytic enhancement (BMO) (fold over background); higher = more active; k-Seq, kA / k0A0; sequences stand for … in GGGAAUGGAUCCACAUCUACGAAUUC…UUCACUGCAGACUUGACGAAGCUG
Summary of the method: as §1

biotinyl-Val-oxazolone = experiment: self-aminoacylation, catalytic enhancement (BVO) (fold over background); higher = more active; k-Seq, kA / k0A0; sequences stand for … in GGGAAUGGAUCCACAUCUACGAAUUC…UUCACUGCAGACUUGACGAAGCUG
Summary of the method: as §1

biotinyl-Leu-oxazolone = experiment: self-aminoacylation, catalytic enhancement (BLO) (fold over background); higher = more active; k-Seq, kA / k0A0; sequences stand for … in GGGAAUGGAUCCACAUCUACGAAUUC…UUCACUGCAGACUUGACGAAGCUG
Summary of the method: as §1

biotinyl-Trp-oxazolone = experiment: self-aminoacylation, catalytic enhancement (BWO) (fold over background); higher = more active; k-Seq, kA / k0A0; sequences stand for … in GGGAAUGGAUCCACAUCUACGAAUUC…UUCACUGCAGACUUGACGAAGCUG
Summary of the method: as §1

| Sequence | self-aminoacylation (biotinyl-Phe-oxazolone) | self-aminoacylation (biotinyl-Ile-oxazolone) | self-aminoacylation (biotinyl-Met-oxazolone) | self-aminoacylation (biotinyl-Val-oxazolone) | self-aminoacylation (biotinyl-Leu-oxazolone) | self-aminoacylation (biotinyl-Trp-oxazolone) |
| --- | --- | --- | --- | --- | --- | --- |
| AAGCUUGCUAAUAGUCGCCAG [Fam3.1 aminoacylation ribozyme variant] | 14.9 | 2.3 | 2.39 | 2.33 | 2.63 | 3.3 |
| CUACUUCAGACAAUCGGUAUG [Fam1A.1 aminoacylation ribozyme variant] | 0.586 | 0.719 | 0.636 | 0.704 | 0.717 | 0.529 |
| AUUCACCUUGGGCAUCGGGUG [Fam2.2 aminoacylation ribozyme variant] | 22.9 | 3.58 | 3.99 | 3.69 | 4.33 | 5.41 |
| AUUCCCCUAGGUCAUCGGAUG [Fam2.2 aminoacylation ribozyme variant] | 2.14 | 3.04 | 2.88 | 3.49 | 3.28 | 4.36 |
| CGACACUUCAAGCAAUCAGUC [Fam1B.1 aminoacylation ribozyme variant] | 13.2 | 0.815 | 0.774 | 0.822 | 0.903 | 4.25 |
| AGUCACCUAGGUCAUCGGGGG [Fam2.2 aminoacylation ribozyme variant] | 17.5 | 3.13 | 3.3 | 2.9 | 3.14 | 3.68 |
| CCACACUUCAAGCCACCGGUC [Fam1B.1 aminoacylation ribozyme variant] | 1.28 | 1.64 | 1.43 | 2.12 | 1.47 | 1.23 |
| AUUCAACUAGGUCAUCGGGGG [Fam2.2 aminoacylation ribozyme variant] | 0.813 | 1.75 | 1.59 | 1.66 | 1.86 | 2.56 |
| CCCCACUUCAAGCAACCGGUC [Fam1B.1 aminoacylation ribozyme variant] | 3.09 | 1.99 | 1.82 | 2.15 | 2.05 | 2.18 |
| CUACUUCCAACAAUCGGUCGG [Fam1A.1 aminoacylation ribozyme variant] | 0.78 | 1.04 | 1.01 | 1.07 | 1.03 | 1.28 |
| AUUCACCUAAGUCAUCAGGUG [Fam2.2 aminoacylation ribozyme variant] | 11 | 2.23 | 3.1 | 2.07 | 3.53 | 3.31 |
| GAGUUUGCUAAUAGUCCCAAG [Fam3.1 aminoacylation ribozyme variant] | 4.57 | 1.05 | 1.33 | 1.1 | 0.812 | 1.64 |
| ACGUUUGCUAAUAGUCGUAAG [Fam3.1 aminoacylation ribozyme variant] | 15.7 | 1.14 | 1.27 | 1.1 | 1.04 | 4.64 |
| AACUUUGCGAAUAGUCGCAAG [Fam3.1 aminoacylation ribozyme variant] | 4.36 | 2.42 | 2.67 | 2.4 | 2.6 | 2.9 |
| AUUCACCUCGGUGAUCGGGUG [Fam2.2 aminoacylation ribozyme variant] | 28.3 | 4.21 | 4.66 | 4.6 | 5.47 | 6 |
| AUUACCCUGGUUAUCCAGUGA [Fam2.1 aminoacylation ribozyme variant] | 74.4 | 5.5 | 11.5 | 5.13 | 11.6 | 14.2 |
| CUACUACAAACAAUCGAUCUG [Fam1A.1 aminoacylation ribozyme variant] | 0.759 | 0.808 | 0.52 | 0.719 | 0.593 | 0.665 |
| AUUCACCUAGCUCAUCGGCUG [Fam2.2 aminoacylation ribozyme variant] | 3.23 | 1.67 | 1.92 | 1.96 | 2.05 | 1.25 |
| CCACAAUUCAAGCAAUCAGUC [Fam1B.1 aminoacylation ribozyme variant] | 1.54 | 0.933 | 0.673 | 0.876 | 0.763 | 0.762 |
| AUUCACCUAGGUGAUGGGGUG [Fam2.2 aminoacylation ribozyme variant] | 14.4 | 2.02 | 2.65 | 2.21 | 2.81 | 2.65 |
| CUAGUUCAACCAAUCGGUCUG [Fam1A.1 aminoacylation ribozyme variant] | 3.36 | 1 | 0.955 | 0.913 | 1.06 | 2.82 |
